Assay [1] deals with T1, r murine EphA7 (mouse, UniProt Q61772).
T1 construct: recombinant Fc fusion (R&D Systems); also called rmuEphA7-Fc; mEphA7
T1 sequence (receptor-Fc fusion, looked up): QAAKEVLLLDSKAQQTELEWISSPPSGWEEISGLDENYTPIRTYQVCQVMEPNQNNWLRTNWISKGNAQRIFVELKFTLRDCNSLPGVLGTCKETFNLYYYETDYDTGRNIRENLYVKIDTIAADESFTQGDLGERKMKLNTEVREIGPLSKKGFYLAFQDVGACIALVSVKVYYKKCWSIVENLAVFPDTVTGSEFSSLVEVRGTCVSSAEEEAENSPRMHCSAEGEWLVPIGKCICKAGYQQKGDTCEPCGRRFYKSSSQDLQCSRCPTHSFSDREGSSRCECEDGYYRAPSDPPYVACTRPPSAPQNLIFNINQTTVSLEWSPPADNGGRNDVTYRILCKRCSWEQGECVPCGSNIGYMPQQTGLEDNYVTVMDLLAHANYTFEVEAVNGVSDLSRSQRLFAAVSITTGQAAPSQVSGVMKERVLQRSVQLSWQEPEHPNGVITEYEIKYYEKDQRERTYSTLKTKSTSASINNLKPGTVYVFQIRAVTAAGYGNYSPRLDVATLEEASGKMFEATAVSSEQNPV
Briefly: activity ELISA, Fab on coated antigen. Here is the method: (§1) More precisely, Nunc Maxisorp plates were coated with the following rEphA proteins: rhuEphAl-Fc, rmuEphA2-Fc, rmuEphA3-Fc, rmuEphA4-Fc, rratEphA5-Fc, rmuEphA6-Fc, rmuEphA7-Fc, rEphA8; all at 0.5 μg/well (all R&D Systems) rhuEphA2-Fc; 0.5 μg/well, and rhuEphA4-His; 0.1 μg/well (both produced at MedImmune, Inc.). Plates were blocked with 3% BSA+0.1% Tween20 for 2 h. […] Incubation with a goat anti-human kappa horseradish peroxydase (HRP) conjugate then followed. HRP activity was detected with TMB substrate and the reaction quenched with 0.2 M H₂SO₄. Plates were read at 450 nm. Data was analyzed by normalizing Fab concentrations to the corresponding activity data (see FIGS. 10B-10H).

Assay [2] has as its target T2, r murine EphA3 (mouse, UniProt P29319).
T2 construct: recombinant Fc fusion (R&D Systems); also called rmuEphA3-Fc; mEphA3
T2 sequence (receptor-Fc fusion, looked up): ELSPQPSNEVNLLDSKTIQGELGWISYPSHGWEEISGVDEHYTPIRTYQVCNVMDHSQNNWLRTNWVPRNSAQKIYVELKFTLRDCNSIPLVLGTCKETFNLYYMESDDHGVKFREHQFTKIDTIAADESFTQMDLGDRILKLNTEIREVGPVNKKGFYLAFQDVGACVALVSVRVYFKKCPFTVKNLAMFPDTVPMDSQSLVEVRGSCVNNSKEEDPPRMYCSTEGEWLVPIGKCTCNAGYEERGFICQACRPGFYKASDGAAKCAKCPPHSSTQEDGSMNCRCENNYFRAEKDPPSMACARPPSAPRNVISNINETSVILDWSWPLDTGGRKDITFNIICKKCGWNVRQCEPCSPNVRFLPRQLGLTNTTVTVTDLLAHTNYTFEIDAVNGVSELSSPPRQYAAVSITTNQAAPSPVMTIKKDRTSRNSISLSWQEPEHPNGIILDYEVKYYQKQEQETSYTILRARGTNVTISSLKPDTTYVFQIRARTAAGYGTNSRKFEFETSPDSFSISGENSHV
Nature of the assay: activity ELISA, Fab on coated antigen. Here is the method:
as §1
(In general: ELISA stands for enzyme-linked immunosorbent assay.)

Assay [3] concerns the target T3, r murine EphA4 (mouse, UniProt Q03137).
T3 construct: recombinant Fc fusion (R&D Systems); also called rmuEphA4-Fc; mEphA4
Nature of the assay: activity ELISA, Fab on coated antigen. The protocol:
as §1

Assay [4] deals with T4, Human EphA4-Fc fusion protein (human, UniProt P54764 20-547).
T4 construct: not shown: Fc portion of a human IgG1
Nature of the assay: BIAcore, IgG immobilized on the sensor chip, EphA4-Fc as analyte. The protocol:
(§2) FIG. 15A-15B. […] Binding affinities were measured using the BIAcore assay. […] Variant kinetic measurements for human EphA4 and were obtained using BIAcore with immobilized variant antibodies and human EphA4-Fc and EphA4-His as analytes.

The target of the next assay is T5, mEphA4 (mouse, UniProt Q03137).
T5 construct: part of an Fc fusion; also called rmuEphA4-Fc
Nature of the assay: ELISA, receptor coated on the plate, purified IgG, anti-human kappa-HRP. Here is the method:
(§3) Secondary screening of IgG constructs of affinity optimized combinatorial variants with additional EphA receptors: With purified IgG constructs of the nine combinatorial variants, additional secondary screening assays were performed using the Activity ELISA (see above) and recombinant EphA receptor proteins. More precisely, Nunc Maxisorp plates were coated with the following rEphA proteins: rhuEphAl-Fc; 0.5 μg/well, rmuEphA2-Fc; 0.5 μg/well, rmuEphA3-Fc: 0.1 μg/well, rmuEphA4-Fc; 0.1 μg/well, rratEphA5-Fc; 0.5 μg/well, rmuEphA6-Fc; 0.5 μg/well, rmuEphA7-Fc; 0.1 μg/well, rEphA8; 0.2 μg/well (all R&D Systems), rhuEphA2-Fc; 0.5 μg/well, and rhuEphA4-His; 0.1 μg/well (both produced at MedImmune, Inc.). Plates were blocked with 3% BSA+0.1% Tween20 for 2 h. […] Incubation with a goat anti-human kappa horseradish peroxydase (HRP) conjugate then followed. HRP activity was detected with TMB substrate and the reaction quenched with 0.2 M H₂SO₄. Plates were read at 450 nm. Data was analyzed by normalizing Fab concentrations to the corresponding activity data (see FIGS. 12A-12J and 14).

A further assay deals with T6, mEphA7 (mouse, UniProt Q61772).
T6 construct: part of an Fc fusion; also called rmuEphA7-Fc
T6 sequence (receptor-Fc fusion, looked up): T1 sequence (receptor-Fc fusion, looked up)
The description is as above. Here is the method: as §3

The target of assay [5] is T1, r murine EphA7. Nature of the assay: activity ELISA, IgG on coated antigen. Here is the method: as §3
The target of assay [6] is T3, r murine EphA4. Briefly: activity ELISA, IgG on coated antigen. The protocol: as §3
The target in assay [7] is T7, Human EphA4-His fusion protein (human, UniProt P54764 20-547).
T7 construct: also called rhuEphA4-His; not shown: Histidine tag
Briefly: BIAcore, IgG immobilized on the sensor chip, EphA4-his as analyte. The protocol: as §2

In the next assay the target is T8, mEphA3 (mouse, UniProt P29319).
T8 construct: part of an Fc fusion; also called rmuEphA3-Fc
T8 sequence (receptor-Fc fusion, looked up): T2 sequence (receptor-Fc fusion, looked up)
Nature of the assay: ELISA, receptor coated on the plate, purified IgG, anti-human kappa-HRP. Here is the method:
as §3

Assay [8] has as its target T2, r murine EphA3. Briefly: activity ELISA, IgG on coated antigen. The protocol:
as §3

The target in the next assay is T9, hEphA2 (human, UniProt P29317).
T9 construct: also called human EphA2
Nature of the assay: ELISA.

Where a chain is given by its changes, count along the chain named.

T9 sequence (P29317 25-534 limits assumed): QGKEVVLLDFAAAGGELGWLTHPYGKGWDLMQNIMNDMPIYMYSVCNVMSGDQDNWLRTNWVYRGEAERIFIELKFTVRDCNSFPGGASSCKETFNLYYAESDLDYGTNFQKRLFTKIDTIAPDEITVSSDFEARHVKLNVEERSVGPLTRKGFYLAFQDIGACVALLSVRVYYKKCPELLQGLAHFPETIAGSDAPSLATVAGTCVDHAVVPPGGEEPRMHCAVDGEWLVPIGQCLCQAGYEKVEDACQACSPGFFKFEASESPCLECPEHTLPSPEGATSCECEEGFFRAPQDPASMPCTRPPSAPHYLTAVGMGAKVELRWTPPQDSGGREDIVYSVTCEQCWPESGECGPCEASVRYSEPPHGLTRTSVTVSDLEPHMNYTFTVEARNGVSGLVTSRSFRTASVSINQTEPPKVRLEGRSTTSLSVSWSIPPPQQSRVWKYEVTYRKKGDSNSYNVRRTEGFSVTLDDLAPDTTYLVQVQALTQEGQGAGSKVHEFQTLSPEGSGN
T7 sequence (P54764 20-547): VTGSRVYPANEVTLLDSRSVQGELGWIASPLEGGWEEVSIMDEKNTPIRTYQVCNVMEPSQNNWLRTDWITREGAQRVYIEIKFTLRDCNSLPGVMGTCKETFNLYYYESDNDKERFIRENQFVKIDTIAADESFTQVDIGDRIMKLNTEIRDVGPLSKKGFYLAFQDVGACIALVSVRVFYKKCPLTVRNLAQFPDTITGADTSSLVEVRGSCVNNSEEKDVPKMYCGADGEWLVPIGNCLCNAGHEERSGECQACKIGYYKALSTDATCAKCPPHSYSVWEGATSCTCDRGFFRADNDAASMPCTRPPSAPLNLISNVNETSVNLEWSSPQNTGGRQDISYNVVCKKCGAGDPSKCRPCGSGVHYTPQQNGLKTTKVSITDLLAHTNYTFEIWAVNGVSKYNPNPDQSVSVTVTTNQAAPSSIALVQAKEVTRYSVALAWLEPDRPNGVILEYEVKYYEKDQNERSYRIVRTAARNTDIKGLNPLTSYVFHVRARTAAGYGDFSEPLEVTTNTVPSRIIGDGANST
T4 sequence (P54764 20-547): as above
T3 sequence (Q03137 20-547 limits assumed): as the sequence (P54764 20-547) above, with P59A, N121S, V124G, R250Q, S251N, T270S, K378R, N406S counted along it
T5 sequence (Q03137 20-547 limits assumed): as the sequence (P54764 20-547) above, with P59A, N121S, V124G, R250Q, S251N, T270S, K378R, N406S counted along it

B1: 6B7 Fab (affinity optimized combinatorial variant of Fab20) (Fab, V domains shown)
VH: QVQLLQSGAEVKKPGASVKVPCKASGYTFTSRAMSWVRQAPGQGLEWMGWINTNTGNPTYAQGFTGRFVFSLDTSVSTAYLQISSLKAEDTAVYYCARVRFTVYGDGMDVWGQGTLVTVSS
VL: EIVLTQSPATLSVSPGERATLSCRASQSVSSNPAWYQQKPGQAPRLLIYGASTRATGIPDRFSASGSGTDFTLTISRVEPEDFAVYYCQQYGPSWTFGQGTKVEIK
As for B1, the binding result with r murine EphA7 [1], with r murine EphA3 [2] and with r murine EphA4 [3] was “binds” each time.

B2: 1B10 Fab (affinity optimized combinatorial variant of Fab20) (Fab, V domains shown)
VH: B1 VH
VL: B1 VL with R54W
As to B2, the binding result in the assay with r murine EphA7 [1] and in the assay with r murine EphA4 [3] was “binds” throughout.

B3: 1D11 IgG1 (affinity optimized combinatorial variant of mAb GEA44 in human IgG1 format) (antibody, V domains shown)
VH: B1 VH with F101T, G107N
VL: B1 VL with P33L, A34P
Consider B3, for which the Kd in [4] stood at 0.176 nM; in [7], 8.8 nM. Also, the figures for the koff in [4] and in assay [7] were 6.15e-05 s⁻¹ and 0.000984 s⁻¹, respectively. Also, the figures for the kon in assay [4] and in [7] were 350000 M⁻¹ s⁻¹ and 112000 M⁻¹ s⁻¹, respectively. The binding result with mEphA4, with mEphA7, with r murine EphA7 [5] and with r murine EphA4 [6] was “binds” each time.

B4: 1G11 IgG1 (affinity optimized combinatorial variant of mAb GEA44 in human IgG1 format) (antibody, V domains shown)
VH: B1 VH
VL: B1 VL with P33L, A34P, A55P
Molecule B4 yielded a Kd in [4] of 0.059 nM. This molecule yielded an off-rate constant (koff) in assay [4] of 1.01e-05 s⁻¹. The same molecule came in with an on-rate (kon) in assay [4] of 172000 M⁻¹ s⁻¹. The binding result with mEphA4, with mEphA7, with mEphA3, with r murine EphA7 [5], in the assay with r murine EphA3 [8] and with r murine EphA4 [6] was “binds” each time.

B5: 3C6 Fab (affinity optimized combinatorial variant of Fab20) (Fab, V domains shown)
VH: B1 VH with F101L
VL: B1 VL with A34P, P93S
For B5, the binding result with r murine EphA7 [1] and in the assay with r murine EphA4 [3] was “binds” in each case.

B6: 1D11 Fab (affinity optimized combinatorial variant of Fab20) (Fab, V domains shown)
VH: B1 VH with F101T, G107N
VL: B1 VL with P33L, A34P
In the case of B6, the binding result with r murine EphA7 [1] and with r murine EphA4 [3] was “binds” in each case.

B7: 8B4 IgG1 (affinity optimized combinatorial variant of mAb GEA44 in human IgG1 format) (antibody, V domains shown)
VH: B1 VH with F101L
VL: B1 VL with A51L
In assay [4], B7 registered a Kd of 0.197 nM, a koff of 2.2e-05 s⁻¹ and a kon of 112000 M⁻¹ s⁻¹.

B8: 1G11 Fab (affinity optimized combinatorial variant of Fab20) (Fab, V domains shown)
VH: B1 VH
VL: B1 VL with P33L, A34P, A55P
Turning to B8, the binding result with r murine EphA7 [1], with r murine EphA3 [2] and in the assay with r murine EphA4 [3] was “binds” throughout.

B9: 1A4 Fab (affinity optimized combinatorial variant of Fab20) (Fab, V domains shown)
VH: B1 VH with F64S
VL: B1 VL
For B9, the binding result with r murine EphA7 [1], in the assay with r murine EphA3 [2] and in the assay with r murine EphA4 [3] was “binds” each time.

B10: 4H5 (antibody, V domains shown)
VH: QVQLLESGGGLVQPGGSLRLSCAASGFTFSSYTMSWVRQAPGQALEWMGTISSGGTYTYYPDSVKGRFTISRDNAKNSLYLQMNSLRAEDTAVYYCAREAIFTYWGRGTLVTVSS
VL: DIQLTQSPSSLSASVGDRVTITCKASQDINNYLSWYQQKPGQAPRLLIYRANRLVDGVPDRFSGSGYGTDFTLTINNIESEDAAYYFCLKYDVFPYTFGQGTKVEIK
As to B10, in the assay with hEphA2, the “ELISA O.D. value” was 0.724.

B11: 12G3H11 (antibody, V domains shown)
VH: QMQLVQSGPEVKKPGTSVKVSCKASGFTFDDYSMNWVRQARGQRLEWIGFIRNKANDYTTEYADSVKGRVTITRDMSTSTAYMELSSLRSEDTAVYYCARYPRHHAMDSWGQGTSVTVSS
VL: DIQMTQSPSSLSASVGDRVTITCRASQSISNNLHWYQQKPGKAPKLLIKYAFQSISGVPSRFSGSGSGTDFTFTISSLQPEDFATYYCQQANSWPLTFGGGTKVEIK
In the case of B11, the “ELISA O.D. value” with hEphA2 is 0.849.

B12: EA5 (antibody, V domains shown)
VH: EVQLQQSGPELVKTGASVKISCKASGYSFTGYYMHWVKQSHGKSLEWIGYISCYNGVTSYNQKFKGKATFTVDTSSSTAYMQFNSLTSEDSAVYYCARSHAMDYWGQGTSVTVSS
VL: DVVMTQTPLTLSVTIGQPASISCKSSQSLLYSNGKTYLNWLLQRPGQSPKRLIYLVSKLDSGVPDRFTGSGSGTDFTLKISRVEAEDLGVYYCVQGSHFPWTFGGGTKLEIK
In the case of B12, in the assay with hEphA2, the “ELISA O.D. value” came out at 0.131.

In general, Kd refers to a measure of binding affinity in units of concentration. As usually defined, the koff is the first-order rate constant of dissociation. Read a low koff as slow dissociation. The kon is a measure of how fast the partners come together. The low end stands for slower complex formation, the high end for faster complex formation.

(Values after US20060121042A1 (AstraZeneca / MedImmune, published 2006).)
